These results are taken from patent US20190322748A1 (Hoffmann-La Roche, published 2019).

For assay [1], the target named is T1, full-length human Tim3 on cells (CHO-K1 stably transfected with plasmid 15312_hTIM3-fl_pUC_Neo) (human, UniProt Q8TDQ0 22-301). Description: cell-based or functional assay.
The target of assay [2] is T2, Tim3-ECD-His-Biotin (human, UniProt Q8TDQ0 22-202, biotinylated with BirA Ligase, site not stated).
T2 construct: also called human Tim3 (ELISA); Biochem Human
Description: ELISA on human Tim3.

The target of assay [3] is T1, full-length human Tim3 on cells (CHO-K1 …). The experiment in a line: cellular ELISA on CHO-TIM3. (In an ELISA, binding on a coated surface is turned into a signal by an enzyme label.)
Description: (§1) Then the reaction was stopped by addition of 25 μl/well 1N HCL-solution.
The target of assay [4] is T2, Tim3-ECD-His-Biotin. The experiment in a line: ELISA on human Tim3 (values in relation to the samples max value).
Description: After washing (3×90 μl/well with PBST-buffer) 25 μl aTim3 samples or diluted (1:2 steps) reference antibody aTim3 F38-2E2 (Biolegend) was added and incubated 1 h at RT. After washing (3×90 μl/well with PBST-buffer) 25 μl/well sheep-anti-mouse-POD (GE NA9310V) was added in 1:9000 dilution and incubated at RT for 1 h while shaking at 400 rpm rotation. After washing (4×90 μl/well with PBST-buffer) 25 μl/well TMB substrate (Calbiochem, #CL07) was added and incubated until OD 1.5-2.5. Then the reaction was stopped by addition of 25 μl/well 1N HCL-solution.
The target of assay [5] is T1, full-length human Tim3 on cells (CHO-K1 …). Description: cellular ELISA on CHO-TIM3 (values in relation to the samples max value).
Description: as §1
Assay [6] has as its target T3, biotinylated cynoPD1-ECD-Biotin (cynomolgus).
T3 construct: extracellular domain; also called cyPD1
Description: ELISA on coated cynoPD1-ECD-Biotin.
Description: After washing (3×90 μl/well with PBST-buffer) 25 μl anti PD1 samples or reference antibodies (human anti PD1; Roche) were added and incubated 1 h at RT on shaker. After washing (3×90 μl/well with PBST-buffer) 25 μl/well goat-anti-human H+L-POD (JIR, JIR109-036-088) was added in 1:1000 dilution and incubated at RT for 1 h on shaker.

Assay [7] has as its target T4, biotinylated PD1-ECD-AviHis (human, UniProt Q15116 25-170, biotinylated, site not stated).
T4 construct: also called huPD1; hu PD1
Description: ELISA on coated biotinylated PD1-ECD-AviHis.

Assay [8] addresses T4, biotinylated PD1-ECD-AviHis. The experiment in a line: ELISA, inhibition of PD-L1 Fc binding to coated PD1-ECD-AviHis.
Assay [9] shares this target. The experiment in a line: ELISA, inhibition of PD-L2 Fc binding to coated PD1-ECD-AviHis.
Description: After washing (3×90 μl/well with PBST-buffer) 25 μl anti PD1 samples or reference antibodies (mouse anti huPD1; Roche) were added and incubated 1 h at RT on shaker.
Assay [10] has the same target. Description: ELISA on coated biotinylated PD1-ECD-AviHis. This is another data set of the same source.
Description: After washing (3×90 μl/well with PBST-buffer) 25 μl anti PD1 antibody samples were added in increasing concentrations and incubated 1 h at RT. After washing (3×90 μl/well with PBST-buffer) 25 μl/well goat-anti-human H+L-POD (JIR, JIR109-036-098) was added in 1:5000 dilution and incubated at RT for 1 h on a shaker.

B1: Tim3_0016 (antibody, V domains shown)
VH: QVTLKESGPGILQPSQTLRLTCSFSGFSLSTSGMSVGWIRQPSGKGLEWLAHIWLNDDVFFNPALKSRLTISKDTSNNQVFLQIASVVTADTATYYCVRANGYLYALDYWGQGTSVTVSS
VL: QIVLTQSPAIMSASPGQKVTITCSASSSVNYTQWYQQKLGSSPKLWIYDAFKLAPGVPARFSGSGTGTSYSLTISSMEAEDAASYFCHQWSSYPWTFGGGTKLEIK
As for B1, in assay [1], the “IFN-gamma release in MLR at 1 µg/ml antibody, % of rec hu IL-2 (20 EU/ml) = 100%” value came to 7% and the “IFN-gamma release in MLR at 10 µg/ml antibody, % of rec hu IL-2 (20 EU/ml) = 100%” value was found to be 22%.

B2: Tim3_0018MutNQ (antibody, V domains shown)
VH: QVTLKESGPGILQPSQTLSLTCSFSGFSLSTSGMSVGWIRQPSGKGLEWLAHIWLNDDVFFNPALKRRLTISKDTSNNQVFLQIASVVTADTATYYCVRANGYLYALDYWGQGISVTVSS
VL: QIVLTQSPAIMSASPGQKVTITCSASSSVQYTQWYQQKLGSSPKLWIYDAFKLAPGVPARFSGSGTGTSYSLTISSMEAEDAASYFCHQWSSYPWTFGGGTKLEIK
For orientation: EC50 means the concentration at which the effect is half-maximal. Low values mean an effect from little substance, high ones a need for much substance. Turning to B2, the Inflexion point in the assay with Tim3-ECD-His-Biotin [2] was determined as 10.8 ng/mL; in assay [3], 12.8 ng/mL. For the same molecule, the EC50 with Tim3-ECD-His-Biotin [4] stood at 0.012 µg/mL; in [5], 0.0134 µg/mL.

B3: Tim3_0016MutNQ (antibody, V domains shown)
VH: QVTLKESGPGILQPSQTLRLTCSFSGFSLSTSGMSVGWIRQPSGKGLEWLAHIWLNDDVFFNPALKSRLTISKDTSNNQVFLQIASVVTADTATYYCVRANGYLYALDYWGQGTSVTVSS
VL: QIVLTQSPAIMSASPGQKVTITCSASSSVQYTQWYQQKLGSSPKLWIYDAFKLAPGVPARFSGSGTGTSYSLTISSMEAEDAASYFCHQWSSYPWTFGGGTKLEIK
Regarding B3, the Inflexion point with Tim3-ECD-His-Biotin [2] is 5.7 ng/mL; in [3], 5.4 ng/mL. Further, the EC50 amounted to 0.0076 µg/mL in the assay with Tim3-ECD-His-Biotin [4] and 0.0063 µg/mL in assay [5].

B4: Tim3_0018MutNS (antibody, V domains shown)
VH: QVTLKESGPGILQPSQTLSLTCSFSGFSLSTSGMSVGWIRQPSGKGLEWLAHIWLNDDVFFNPALKRRLTISKDTSNNQVFLQIASVVTADTATYYCVRANGYLYALDYWGQGISVTVSS
VL: QIVLTQSPAIMSASPGQKVTITCSASSSVSYTQWYQQKLGSSPKLWIYDAFKLAPGVPARFSGSGTGTSYSLTISSMEAEDAASYFCHQWSSYPWTFGGGTKLEIK
For the molecule B4, the values for the Inflexion point (in the assay with Tim3-ECD-His-Biotin [2]; in [3]) were 6.5 ng/mL and 11.1 ng/mL, respectively. The figures for the EC50 (with Tim3-ECD-His-Biotin [4]; in assay [5]) were 0.0103 µg/mL and 0.0112 µg/mL, respectively.

B5: Tim3_0016MutNS (antibody, V domains shown)
VH: QVTLKESGPGILQPSQTLRLTCSFSGFSLSTSGMSVGWIRQPSGKGLEWLAHIWLNDDVFFNPALKSRLTISKDTSNNQVFLQIASVVTADTATYYCVRANGYLYALDYWGQGTSVTVSS
VL: QIVLTQSPAIMSASPGQKVTITCSASSSVSYTQWYQQKLGSSPKLWIYDAFKLAPGVPARFSGSGTGTSYSLTISSMEAEDAASYFCHQWSSYPWTFGGGTKLEIK
For the molecule B5, the Inflexion point with Tim3-ECD-His-Biotin [2] amounted to 5.5 ng/mL; in assay [3], 8.5 ng/mL. For the same molecule, the EC50 with Tim3-ECD-His-Biotin [4] worked out at 0.0085 µg/mL; in assay [5], 0.0091 µg/mL.

B6: PD1-0073 (antibody, V domains shown)
VH: EVKLVESGGGLVKPGGSLKLSCAASGFTFSNYGMSWIRQTPEKGLEWVATISGGGRDTYYPDSVKGRFTISRDNVKNNLYLQMSSLRSEDTAFYYCASYYYGIDYWGQGTSVTVSS
VL: DIVMTQPHKFMSTSVGDRVRITCKASQDVTTAVAWYQQKPGQSPKLLIYWASTRHTGVPDRFTGSGSGTEFTLTISSVQAEDLALYYCQQHYSIPWTFGGGTKLEIK
As a reminder, the IC50 is the concentration that gives 50% inhibition. A higher IC50 goes with weaker potency. Take B6: the EC50 in assay [6] amounted to 0.0083 µg/mL; in [7], 0.0151 µg/mL. Moreover, the figures for the IC50 in assay [8] and in assay [9] were 0.124 µg/mL and 0.065 µg/mL, respectively.

B7: PD1-0102 (antibody, V domains shown)
VH: DVQLQESGPDLVKPSQSLSLTCTVTGYSITSGYSWHWIRQFPGNKLEWMGFIHSSGDTNYNPSLKSRISFTRDTSKNQFFLQLSSLTDEDTATYYCATYRNWYFDVWGAGTTVTVSS
VL: DIVMTQSPSSLTVTAGEKVTMRCKSSQSLLNSGTQKNYLTWYQQKPGQPPKLLIYWASTRESGVPNRFTGSGSGTDFTLTISSVQAEDLSVYYCQSDYTFPLTFGGGTKLELK
With B7, the EC50 in [6] worked out at 0.0527 µg/mL; in [7], 0.0342 µg/mL. The figures for the IC50 in assay [8] and in [9] were greater than 35.5 µg/mL and 0.14 µg/mL, respectively.

B8: PD1-0098 (antibody, V domains shown)
VH: DVQLQESGPGLVKPSQSLSLTCTVTGYSITSDYAWNWIRQFPGDKLEWLGYITYSGFTNYNPSLKSRISISRDTSKNQFFLQLNSVATEDTATYYCARWHGSAPWYFDYWGRGTTLTVSS
VL: DVLMTQTPLSLPVSLGDQASISCRSSQNIVHSDGNTYLEWYLQKPGQSPNLLIYKVSRRFSGVPDRFSGSGSGTDFTLKISRVEAEDLGVYYCFQGSHFPLTFGAGTKLELK
For the molecule B8, the EC50 in assay [6] stood at 0.0546 µg/mL; in assay [7], 0.0508 µg/mL. The IC50 in assay [8] turned out to be 0.174 µg/mL; in assay [9] it was 0.045 µg/mL.

B9: PD1-0069 (antibody, V domains shown)
VH: QVQLQQSGPELVRPGVSVKISCKGSGYTFTDYAMHWVKQSHARTLEWIGVISTYSGDTNYNQKFKDKATMTVDKSSSTAYLELARMTSEDSAIYYCARLGITTGFAYWGQGTLVTVSA
VL: DIVLTQSPASLAVSLGQRATISCRASKGVSTSSYSFMHWYQQKPRQPPKLLIKYASYLESGVPARFSGSGSGTDFTLNIHPVEEEDAATYYCHHSREFPWTFGGGTKLEIK
For the molecule B9, the values for the EC50 in [6] and in assay [7] were 0.0227 µg/mL and 0.0457 µg/mL, respectively. In addition, the results for the IC50 in [8] and in assay [9] were 0.225 µg/mL and 0.089 µg/mL, respectively.

B10: PD1-0050 (antibody, V domains shown)
VH: DVQLQESGPGLVKPSQSLSLTCTVTGYSITSDYAWNWIRQFPGNKLEWMGYITYTGRTSYNPSLKSRISITRDTSKNQFFLQLNSVTTEDTATYYCAREMDYYGSTLDYWGQGTTLTVSS
VL: KIVLTQSPASLAVSLRQRATISCRASESVDRYGNSFIHWYQQKPGQPPKVLIYRASNLESGFPARFSGSGSRTDFTLTIDPVEADDAATYYCQQNNEDPYTFGSGTKLEIK
With B10, the figures for the EC50 in assay [6] and in [7] were 0.0098 µg/mL and 0.0179 µg/mL, respectively. Moreover, the IC50 in [8] came out at 0.128 µg/mL; in assay [9] it was 0.034 µg/mL.

B11: Tim3_0038 (antibody, V domains shown)
VH: EVQLQQSGAEPLKPGASVKLTCTTSGFNIKDYYIHWVKQRSDQGLEWIGRIDPEDGELIYAPKFQDKATITVDTSSNIAYLQLNSLTSEDTAVYYCSRDHGYVGWFAYWGQGTLVTVSA
VL: NVVMTQSPKSMIMSVGQRVTLNCKASENVDTYVSWYQQKPEQSPKLLIYGASNRYTGVPDRFTGSRSATDFTLTISSVQAEDLAVYYCGQSYSYPWTFGGGTKLEFR
As for B11, in [1], the “IFN-gamma release in MLR at 1 µg/ml antibody, % of rec hu IL-2 (20 EU/ml) = 100%” value is 1%; the “IFN-gamma release in MLR at 10 µg/ml antibody, % of rec hu IL-2 (20 EU/ml) = 100%” value was 38%; the “IFN-gamma release in MLR at 40 µg/ml antibody, % of rec hu IL-2 (20 EU/ml) = 100%” value amounted to 51%.

B12: Chimeric TIM3-0028 (antibody, human IgG1, V domains shown)
VH: EVQLQQSVAELVRPGASVKLSCTASGFNIKTTYMHWVKQRPEQGLEWIGRIDPADDNTKYAPKFQGKATITADTSSNTAYLQLSSLTSEDAAIYYCVRDFGYVAWFAYWGQGTLVTFSA
VL: NIVMTPTPKFLPVSSGDRVTMTCRASQSVDNYVAWYQQKPGQSPKLLIYYASNRYIGVPDRFTGSGSGTDFTFTISSVQVEDLAVYFCQQHYSSPYTFGSGTKLEIK
notes: also called aTIM3-chi28
B12: in [10], the binding result is on record as “no binding”.

B13: PD1-0103 (antibody, V domains shown)
VH: EVILVESGGGLVKPGGSLKLSCAASGFSFSSYTMSWVRQTPEKRLDWVATISGGGRDIYYPDSVKGRFTISRDNAKNTLYLEMSSLMSEDTALYYCVLLTGRVYFALDSWGQGTSVTVSS
VL: KIVLTQSPASLPVSLGQRATISCRASESVDTSDNSFIHWYQQRPGQSPKLLIYRSSTLESGVPARFSGSGSRTDFTLTIDPVEADDVATYYCQQNYDVPWTFGGGTKLEIK
notes: Mouse monoclonal antibody
On to B13, for which the EC50 in [6] was 0.0369 µg/mL; in assay [7], 0.0337 µg/mL. In addition, the IC50 is 0.182 µg/mL in assay [8] and 0.051 µg/mL in assay [9].

B14: PD1-0078 (antibody, V domains shown)
VH: QVQLQQPGAELVKPGASVKMSCKASGYTFTSTWMHWVKQRPGQGLEWIGAIDPSDSYTTYNQKFKGKATLTVDTSSTTAYMQLSSLTSEDSAVYYCTRSPFDYWGQGTTLTVSS
VL: DIVMTQSHKFMSTSVGDRVSITCKASQDVSTAVAWYQQKPGQSPKLLIYSASYRYTGVPDRFTGSGSGTDFTFAISSVQAEDLAVYYCQQHYSHPFTFGSGTKLEIK
Consider B14, for which the EC50 amounted to 0.0224 µg/mL in assay [6] and 0.0263 µg/mL in assay [7]. The same molecule came in with an IC50 in assay [9] of 0.086 µg/mL.
